Test results: PMC9328677 (2021)

B1: acidic domain of Homo sapiens APLF (APLF^AD, residues 450 to 511), wild type [Homo sapiens] / stoichiometric mixture of full-length Drosophila melanogaster H2A-H2B and H3-H4 (octamer-mix) [Drosophila melanogaster] (parent complex)
chain 1: DEDNDNVGQPNEYDLNDSFLDDEEEDYEPTDEDSDWEPGKEDEEKEDVEELLKEAKRFMKRK
chain 2: not shown
chain 3: not shown
chain 4: not shown
chain 5: not shown

Variants of: B1
Test: ITC

In order of rising Kd:
1. chain 1 Y27A, chain 1 W36A  0.317 µM
2. chain 1 Y13A, chain 1 F19A  0.671 µM
3. chain 1 Y13A, chain 1 F19A, chain 1 Y27A, chain 1 W36A  0.794 µM
